From IntAct's records for PubMed 19017798

B1: Latent membrane protein 1 (Epstein-Barr virus (strain B95-8) (HHV-4)), P03230 (parent)
chain: MEHDLERGPPGPRRPPRGPPLSSSLGLALLLLLLALLFWLYIVMSDWTGGALLVLYSFALMLIIIILIIFIFRRDLLCPLGALCILLLMITLLLIALWNLHGQALFLGIVLFIFGCLLVLGIWIYLLEMLWRLGATIWQLLAFFLAFFLDLILLIIALYLQQNWWTLLVDLLWLLLFLAILIWMYYHGQRHSDEHHHDDSLPHPQQATDDSGHESDSNSNEGRHHLLVSGAGDGPPLCSQNLGAPGGGPDNGPQDPDNTDDNGPQDPDNTDDNGPHDPLPQDPDNTDDNGPQDPDNTDDNGPHDPLPHSPSDSAGNDGGPPQLTEEVENKGGDQGPPLMTDGGGGHSHDSGHGGGDPHLPTLLLGSSGSGGDDDDPHGPVQLSYYD
partner: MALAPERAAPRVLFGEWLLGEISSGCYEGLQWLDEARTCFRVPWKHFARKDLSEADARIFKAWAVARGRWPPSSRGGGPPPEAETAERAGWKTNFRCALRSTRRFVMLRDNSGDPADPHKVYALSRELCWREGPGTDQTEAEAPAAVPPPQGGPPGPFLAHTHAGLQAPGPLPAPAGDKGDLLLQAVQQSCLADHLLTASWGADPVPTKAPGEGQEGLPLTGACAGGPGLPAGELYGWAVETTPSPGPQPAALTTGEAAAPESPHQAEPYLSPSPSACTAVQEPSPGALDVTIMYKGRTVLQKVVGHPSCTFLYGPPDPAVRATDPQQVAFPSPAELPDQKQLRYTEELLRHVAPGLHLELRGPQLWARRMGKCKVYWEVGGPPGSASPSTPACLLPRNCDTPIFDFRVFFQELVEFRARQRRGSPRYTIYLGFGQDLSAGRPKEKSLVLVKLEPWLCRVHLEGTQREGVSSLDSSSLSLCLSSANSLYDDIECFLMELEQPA

Variants of: B1
Conditions: with IRF7, Q92985-1

| Variant | effect of a mutation on the interaction |
| --- | --- |
| P376A;H377A;G378A;P379A;V380A;Q381A;L382A;S383A | disrupting interaction |
